Where no end group is shown, it is not given here. [ ]: non-standard residue; d: D form. Aib = CC(C)(N)C(=O)O
B1: Compound A103 (peptide)
peptide: YSHGTFTSDYSKYLD[Aib]ARAQEFV[Aib]WLEDEPSSGAPPPS-OH
modifications: N-terminus assumed
SMILES: CC(C)C[C@H](NC(=O)[C@H](Cc1ccc(O)cc1)NC(=O)[C@H](CCCCN)NC(=O)[C@H](CO)NC(=O)[C@H](Cc1ccc(O)cc1)NC(=O)[C@H](CC(=O)O)NC(=O)[C@H](CO)NC(=O)[C@@H](NC(=O)[C@H](Cc1ccccc1)NC(=O)[C@@H](NC(=O)CNC(=O)[C@H](Cc1c[nH]cn1)NC(=O)[C@H](CO)NC(=O)[C@@H](N)Cc1ccc(O)cc1)[C@@H](C)O)[C@@H](C)O)C(=O)N[C@@H](CC(=O)O)C(=O)NC(C)(C)C(=O)N[C@@H](C)C(=O)N[C@@H](CCCNC(=N)N)C(=O)N[C@@H](C)C(=O)N[C@@H](CCC(N)=O)C(=O)N[C@@H](CCC(=O)O)C(=O)N[C@@H](Cc1ccccc1)C(=O)N[C@H](C(=O)NC(C)(C)C(=O)N[C@@H](Cc1c[nH]c2ccccc12)C(=O)N[C@@H](CC(C)C)C(=O)N[C@@H](CCC(=O)O)C(=O)N[C@@H](CC(=O)O)C(=O)N[C@@H](CCC(=O)O)C(=O)N1CCC[C@H]1C(=O)N[C@@H](CO)C(=O)N[C@@H](CO)C(=O)NCC(=O)N[C@@H](C)C(=O)N1CCC[C@H]1C(=O)N1CCC[C@H]1C(=O)N1CCC[C@H]1C(=O)N[C@@H](CO)C(=O)O)C(C)C
B2: Compound A85 (peptide)
peptide: YSHGTFTSDYSKYLD[Aib]KRAQEFV[Aib]WLEDEPSSGKPPPS-NH2
modifications: N-terminus assumed
SMILES: CC(C)C[C@H](NC(=O)[C@H](Cc1ccc(O)cc1)NC(=O)[C@H](CCCCN)NC(=O)[C@H](CO)NC(=O)[C@H](Cc1ccc(O)cc1)NC(=O)[C@H](CC(=O)O)NC(=O)[C@H](CO)NC(=O)[C@@H](NC(=O)[C@H](Cc1ccccc1)NC(=O)[C@@H](NC(=O)CNC(=O)[C@H](Cc1c[nH]cn1)NC(=O)[C@H](CO)NC(=O)[C@@H](N)Cc1ccc(O)cc1)[C@@H](C)O)[C@@H](C)O)C(=O)N[C@@H](CC(=O)O)C(=O)NC(C)(C)C(=O)N[C@@H](CCCCN)C(=O)N[C@@H](CCCNC(=N)N)C(=O)N[C@@H](C)C(=O)N[C@@H](CCC(N)=O)C(=O)N[C@@H](CCC(=O)O)C(=O)N[C@@H](Cc1ccccc1)C(=O)N[C@H](C(=O)NC(C)(C)C(=O)N[C@@H](Cc1c[nH]c2ccccc12)C(=O)N[C@@H](CC(C)C)C(=O)N[C@@H](CCC(=O)O)C(=O)N[C@@H](CC(=O)O)C(=O)N[C@@H](CCC(=O)O)C(=O)N1CCC[C@H]1C(=O)N[C@@H](CO)C(=O)N[C@@H](CO)C(=O)NCC(=O)N[C@@H](CCCCN)C(=O)N1CCC[C@H]1C(=O)N1CCC[C@H]1C(=O)N1CCC[C@H]1C(=O)N[C@@H](CO)C(N)=O)C(C)C
B3: Compound A102 (peptide)
peptide: YSHGTFTSDYSKWLD[Aib]KRAQEFVKWLEDE-OH
modifications: N-terminus assumed
SMILES: CC(C)C[C@H](NC(=O)[C@H](Cc1c[nH]c2ccccc12)NC(=O)[C@H](CCCCN)NC(=O)[C@@H](NC(=O)[C@H](Cc1ccccc1)NC(=O)[C@H](CCC(=O)O)NC(=O)[C@H](CCC(N)=O)NC(=O)[C@H](C)NC(=O)[C@H](CCCNC(=N)N)NC(=O)[C@H](CCCCN)NC(=O)C(C)(C)NC(=O)[C@H](CC(=O)O)NC(=O)[C@H](CC(C)C)NC(=O)[C@H](Cc1c[nH]c2ccccc12)NC(=O)[C@H](CCCCN)NC(=O)[C@H](CO)NC(=O)[C@H](Cc1ccc(O)cc1)NC(=O)[C@H](CC(=O)O)NC(=O)[C@H](CO)NC(=O)[C@@H](NC(=O)[C@H](Cc1ccccc1)NC(=O)[C@@H](NC(=O)CNC(=O)[C@H](Cc1c[nH]cn1)NC(=O)[C@H](CO)NC(=O)[C@@H](N)Cc1ccc(O)cc1)[C@@H](C)O)[C@@H](C)O)C(C)C)C(=O)N[C@@H](CCC(=O)O)C(=O)N[C@@H](CC(=O)O)C(=O)N[C@@H](CCC(=O)O)C(=O)O
B4: Compound A101 (peptide)
peptide: YGHGTFTSDHSKYLD[Aib]KRAQEFVKWLEDE-OH
modifications: N-terminus assumed
SMILES: CC(C)C[C@H](NC(=O)[C@H](Cc1c[nH]c2ccccc12)NC(=O)[C@H](CCCCN)NC(=O)[C@@H](NC(=O)[C@H](Cc1ccccc1)NC(=O)[C@H](CCC(=O)O)NC(=O)[C@H](CCC(N)=O)NC(=O)[C@H](C)NC(=O)[C@H](CCCNC(=N)N)NC(=O)[C@H](CCCCN)NC(=O)C(C)(C)NC(=O)[C@H](CC(=O)O)NC(=O)[C@H](CC(C)C)NC(=O)[C@H](Cc1ccc(O)cc1)NC(=O)[C@H](CCCCN)NC(=O)[C@H](CO)NC(=O)[C@H](Cc1c[nH]cn1)NC(=O)[C@H](CC(=O)O)NC(=O)[C@H](CO)NC(=O)[C@@H](NC(=O)[C@H](Cc1ccccc1)NC(=O)[C@@H](NC(=O)CNC(=O)[C@H](Cc1c[nH]cn1)NC(=O)CNC(=O)[C@@H](N)Cc1ccc(O)cc1)[C@@H](C)O)[C@@H](C)O)C(C)C)C(=O)N[C@@H](CCC(=O)O)C(=O)N[C@@H](CC(=O)O)C(=O)N[C@@H](CCC(=O)O)C(=O)O

These binders were tested against human glucagon receptor (GCGR) (human, UniProt P47871 26-477) (assay: cell-based or functional assay).

Binder | hGCGR pEC50 (cAMP) mean (n = 3): 11 point curve starting at 1 nM
YSHGTFTSDYTRLLESKRAQEFVKWLEDEPSSGAPPPS-OH [Compound A98] | 12.2 pEC50
YSHGTFTSDYSKYLDAARAQEFVKWLEDEPSSGAPPPS-OH [Compound A97] | 12.3 pEC50

Each binder was assayed against human GLP-1 receptor (GLP-1R) (human, UniProt P43220 24-463) (assay: cell-based or functional assay).
Target sequence in this assay (P43220 24-463): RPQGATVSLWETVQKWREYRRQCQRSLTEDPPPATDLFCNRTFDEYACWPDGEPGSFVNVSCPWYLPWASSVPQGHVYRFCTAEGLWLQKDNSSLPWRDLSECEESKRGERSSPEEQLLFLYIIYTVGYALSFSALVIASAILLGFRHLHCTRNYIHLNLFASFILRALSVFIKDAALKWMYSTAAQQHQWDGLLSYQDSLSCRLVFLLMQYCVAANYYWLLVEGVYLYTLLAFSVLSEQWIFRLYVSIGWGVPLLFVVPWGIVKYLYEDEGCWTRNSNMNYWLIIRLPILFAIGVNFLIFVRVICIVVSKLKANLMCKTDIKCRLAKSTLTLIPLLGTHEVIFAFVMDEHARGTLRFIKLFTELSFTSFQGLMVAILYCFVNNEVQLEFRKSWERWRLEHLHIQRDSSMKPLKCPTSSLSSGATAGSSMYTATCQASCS

Binder | hGLP1 pEC50 (cAMP) mean (n = 3): 11 point curve starting at 1 nM
YSHGTFTSDYTRLLESKRAQEFVKWLEDEPSSGAPPPS-OH [Compound A98] | < 9 pEC50
YSHGTFTSDYSKYLDAARAQEFVKWLEDEPSSGAPPPS-OH [Compound A97] | < 9 pEC50

Target: human GLP-1 receptor (GLP-1R) (human, UniProt P43220 24-463)
Assay: cell-based or functional assay
Remark: another data set of the same source
Target sequence in this assay (P43220 24-463): as the sequence (P43220 24-463) above

Binder | hGLP1 pEC50 (cAMP)
YSQGTFTSDYSKYLD[Aib]KAAQEFV[Aib]WLEDEPSSGKPPPS [Compound A96] | < 9 pEC50
B1 | < 9 pEC50
WSQGTFTSDYSKYLD[Aib]KRAQEFV[Aib]WLEDEPSSGKPPPS [Compound A91] | < 9 pEC50
WSQGTFTSDYSKYLD[Aib]KAAQEFV[Aib]WLEDEPSSGKPPPS [Compound A93] | < 9 pEC50
YSQGTFTSDYSKYLD[Aib]KRAQEFV[Aib]WLEDEPSSGKPPPS [Compound A86] | < 9 pEC50
YSHGTFTSDYSKYLD[Aib]KRAQEFV[Aib]WLEDEKSSGKPPPS [Compound A87] | < 9 pEC50
YSHGTFTSDYSKYLD[Aib]KAAQEFV[Aib]WLEDEPSSGKPPPS [Compound A90] | < 9 pEC50
YSQGTFTSDYSKYLD[Aib]KRAQEFV[Aib]WLEDEPSSGAPPPS [Compound A94] | < 9 pEC50
YSHGTFTSDYSKYLD[Aib]KRAQEFV[Aib]WLEDEPSSGKKPPS [Compound A88] | < 9 pEC50
B2 | < 9 pEC50
YSQGTFTSDYSKYLD[Aib]KAAQEFV[Aib]WLEDEPSSGAPPPS [Compound A95] | < 9 pEC50
B3 | < 9 pEC50
YSHGTFTSDYSKYLD[Aib]KRAQEFV[Aib]HLEDEPSSGKPPPS [Compound A89] | < 9 pEC50
YSQGTFTSDYSKYLDSARAQEFVKWLEDEPKSKSPPPS [Compound A81] | < 9 pEC50
YSHGTFTSDYSKYLDSARAQEFVKHLEDEPKSKSPPPS [Compound A84] | < 9 pEC50
YSHGTFTSDYSKYLDSARAQEFTKWLEDEPKSKSPPPS [Compound A83] | < 9 pEC50
YSQGTFTSDYSKYLDSARAQEFVKWLEDEPKSKAPPPS [Compound A82] | < 9 pEC50
WSQGTFTSDYSKYLD[Aib]KAAQEFV[Aib]WLEDEPSSGAPPPS [Compound A92] | < 9 pEC50
B4 | < 9 pEC50
YSHGTFTSDYSKYLDAARAQEFVKWLEDEPKSKSPPPS-NH2 [Compound A80] | < 9 pEC50

Target: human glucagon receptor (GCGR) (human, UniProt P47871 26-477)
Assay: cell-based or functional assay
Remark: another data set of the same source

Binder | hGCGR pEC50 (cAMP)
YSQGTFTSDYSKYLD[Aib]KAAQEFV[Aib]WLEDEPSSGKPPPS [Compound A96] | 13 pEC50
WSQGTFTSDYSKYLD[Aib]KRAQEFV[Aib]WLEDEPSSGKPPPS [Compound A91] | 12.8 pEC50
WSQGTFTSDYSKYLD[Aib]KAAQEFV[Aib]WLEDEPSSGKPPPS [Compound A93] | 10.9 pEC50
YSQGTFTSDYSKYLD[Aib]KRAQEFV[Aib]WLEDEPSSGKPPPS [Compound A86] | 13.3 pEC50
YSHGTFTSDYSKYLD[Aib]KRAQEFV[Aib]WLEDEKSSGKPPPS [Compound A87] | 13.6 pEC50
YSHGTFTSDYSKYLD[Aib]KAAQEFV[Aib]WLEDEPSSGKPPPS [Compound A90] | 13.1 pEC50
YSQGTFTSDYSKYLD[Aib]KRAQEFV[Aib]WLEDEPSSGAPPPS [Compound A94] | 14.1 pEC50
YSHGTFTSDYSKYLD[Aib]KRAQEFV[Aib]WLEDEPSSGKKPPS [Compound A88] | 13.8 pEC50
B2 | 13.6 pEC50
YSQGTFTSDYSKYLD[Aib]KAAQEFV[Aib]WLEDEPSSGAPPPS [Compound A95] | 13.3 pEC50
YSHGTFTSDYSKYLD[Aib]KRAQEFV[Aib]HLEDEPSSGKPPPS [Compound A89] | 12.7 pEC50
YSQGTFTSDYSKYLDSARAQEFVKWLEDEPKSKSPPPS [Compound A81] | 11 pEC50
YSHGTFTSDYSKYLDSARAQEFVKHLEDEPKSKSPPPS [Compound A84] | 9.4 pEC50
YSHGTFTSDYSKYLDSARAQEFTKWLEDEPKSKSPPPS [Compound A83] | 10.2 pEC50
YSQGTFTSDYSKYLDSARAQEFVKWLEDEPKSKAPPPS [Compound A82] | 11 pEC50
WSQGTFTSDYSKYLD[Aib]KAAQEFV[Aib]WLEDEPSSGAPPPS [Compound A92] | 10.7 pEC50
YSHGTFTSDYSKYLDAARAQEFVKWLEDEPKSKSPPPS-NH2 [Compound A80] | 12.5 pEC50
